Experiment [1] concerns the target T1, human LEPR, full length, on HEK293-STAT3Luc-hLepR1 cells (Homo sapiens, UniProt P48357 22-1165).
T1 sequence: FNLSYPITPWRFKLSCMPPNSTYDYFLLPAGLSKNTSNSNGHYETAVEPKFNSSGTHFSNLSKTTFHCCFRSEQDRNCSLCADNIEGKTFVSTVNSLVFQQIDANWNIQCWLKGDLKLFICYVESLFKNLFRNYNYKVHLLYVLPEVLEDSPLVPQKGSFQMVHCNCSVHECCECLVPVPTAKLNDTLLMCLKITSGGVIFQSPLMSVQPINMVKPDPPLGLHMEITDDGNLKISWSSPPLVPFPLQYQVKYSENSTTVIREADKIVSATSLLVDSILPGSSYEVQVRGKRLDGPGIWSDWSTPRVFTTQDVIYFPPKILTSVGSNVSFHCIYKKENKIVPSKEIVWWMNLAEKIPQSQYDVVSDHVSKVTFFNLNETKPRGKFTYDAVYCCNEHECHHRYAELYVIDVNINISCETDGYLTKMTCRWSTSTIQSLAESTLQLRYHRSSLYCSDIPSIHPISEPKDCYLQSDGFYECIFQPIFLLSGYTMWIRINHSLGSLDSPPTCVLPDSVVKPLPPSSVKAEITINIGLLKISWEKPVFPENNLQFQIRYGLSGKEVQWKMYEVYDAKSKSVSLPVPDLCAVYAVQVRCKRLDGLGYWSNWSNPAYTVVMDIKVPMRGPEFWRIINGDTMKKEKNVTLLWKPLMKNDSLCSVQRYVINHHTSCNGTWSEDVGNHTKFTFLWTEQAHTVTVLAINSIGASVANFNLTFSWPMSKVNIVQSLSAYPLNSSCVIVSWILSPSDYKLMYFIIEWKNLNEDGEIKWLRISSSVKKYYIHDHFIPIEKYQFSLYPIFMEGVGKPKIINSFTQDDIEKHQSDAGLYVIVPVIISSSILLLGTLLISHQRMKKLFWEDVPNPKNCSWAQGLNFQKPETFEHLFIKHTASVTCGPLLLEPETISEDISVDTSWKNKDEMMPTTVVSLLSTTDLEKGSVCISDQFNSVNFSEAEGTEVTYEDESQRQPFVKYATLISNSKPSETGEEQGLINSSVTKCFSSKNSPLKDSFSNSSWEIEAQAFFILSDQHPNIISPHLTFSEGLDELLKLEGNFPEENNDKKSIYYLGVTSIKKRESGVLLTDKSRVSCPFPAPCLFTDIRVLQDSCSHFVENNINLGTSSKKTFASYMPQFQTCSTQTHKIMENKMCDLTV
Briefly: cell-based or functional assay.

Experiment [2] addresses T1, human LEPR, full length, on …. Briefly: cell-based or functional assay. The source holds these as a separate data set.
Experiment [3] addresses T2, Recombinant LEPR extracellular domain fused to hIgG1-Fc (human LEPR ECD-TEV-Fc) (human).
T2 construct: The entry holds ECD, TEV site, human IgG1 Fc and a His tag in one chain; also called LEPR-Fc; hLEPR-TEV-hIgG1Fc
Description: ELISA, plate coated with human LEPR ECD (SEQ ID NO:30) at 2 ug/mL, antibody titrated 1:3 from 50 ug/mL, goat anti-human kappa AP detection, OD560. (In an ELISA, binding on a coated surface is turned into a signal by an enzyme label.)

The target in experiment [4] is T3, Rat LEPR-ECD-His (rat, UniProt Q62959 22-839).
T3 sequence: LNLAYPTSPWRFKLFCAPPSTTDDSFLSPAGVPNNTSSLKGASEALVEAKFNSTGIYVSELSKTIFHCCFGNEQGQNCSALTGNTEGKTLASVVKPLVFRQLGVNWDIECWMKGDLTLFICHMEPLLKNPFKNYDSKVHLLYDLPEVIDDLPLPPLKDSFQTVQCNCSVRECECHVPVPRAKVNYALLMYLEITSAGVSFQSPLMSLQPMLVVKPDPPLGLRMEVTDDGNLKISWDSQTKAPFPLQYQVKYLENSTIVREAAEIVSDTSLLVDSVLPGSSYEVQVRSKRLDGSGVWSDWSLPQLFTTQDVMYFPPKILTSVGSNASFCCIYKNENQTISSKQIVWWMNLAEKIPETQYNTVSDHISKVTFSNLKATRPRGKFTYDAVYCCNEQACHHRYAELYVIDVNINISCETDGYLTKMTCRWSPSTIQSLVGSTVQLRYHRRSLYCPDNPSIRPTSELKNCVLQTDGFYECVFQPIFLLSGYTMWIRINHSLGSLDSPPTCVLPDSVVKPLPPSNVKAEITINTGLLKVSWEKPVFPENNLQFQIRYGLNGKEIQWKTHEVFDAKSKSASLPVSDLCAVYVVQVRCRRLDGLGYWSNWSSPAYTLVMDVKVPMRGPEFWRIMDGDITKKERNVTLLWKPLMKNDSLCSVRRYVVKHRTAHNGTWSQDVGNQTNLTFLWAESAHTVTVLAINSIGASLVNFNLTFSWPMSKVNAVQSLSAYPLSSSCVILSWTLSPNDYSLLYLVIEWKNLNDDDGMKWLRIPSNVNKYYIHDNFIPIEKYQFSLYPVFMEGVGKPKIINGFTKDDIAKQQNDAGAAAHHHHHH
Description: SPR (Biacore T200), antibody captured on Protein A/G chip, n = 1.

Experiment [5] concerns the target T1, human LEPR, full length, on …. Description: flow cytometry on live HEK293-STAT3Luc-hLepR1 cells, AF647 anti-human IgG; average of 4 runs.
The target of experiment [6] is T4, cynomolgus monkey LEPR, full length, on HEK293-STAT3Luc-cmLepR2 cells (Macaca fascicularis).
T4 construct: whole, on cells; also called cyno-LEPR; Macaca fascicularis LEPR
Briefly: flow cytometry on live HEK293-STAT3Luc-cmLepR2 cells, AF647 anti-human IgG; average of 4 runs.

B1: Antibody A (antibody, human IgG1, kappa, L234A L235A)
heavy: EVQLLESGGGLVQPGGSLRLSCAASGFTFSSFAMSWVRQAPGKGLEWVSAISGSGGSTYSADSVRGRFTISRDNSKNTLYLQMNSLRAEDTAVYYCAKDQGDWDFLFDYWGQGTLVTVSSASTKGPSVFPLAPSSKSTSGGTAALGCLVKDYFPEPVTVSWNSGALTSGVHTFPAVLQSSGLYSLSSVVTVPSSSLGTQTYICNVNHKPSNTKVDKRVEPKSCDKTHTCPPCPAPEAAGGPSVFLFPPKPKDTLYITREPEVTCVVVSVSHEDPEVKFNWYVDGVEVHNAKTKPREEQYNSTYRVVSVLTVLHQDWLNGKEYKCKVSNKALPAPIEKTISKAKGQPREPQVYTLPPSREEMTKNQVSLTCLVKGFYPSDIAVEWESNGQPENNYKTTPPVLDSDGSFFLYSKLTVDKSRWQQGNVFSCSVMHEALHNHYTQKSLSLSPGK
light: DIQMTQSPSFLSASVGDRVTITCRASQGISSSLAWYQQKPGKAPKLLIYTASTLQSGVPSRFSGSGSGTEFTLTISSLQPEDFATYYCQQLIYYPFTFGQGTKVEIKRTVAAPSVFIFPPSDEQLKSGTASVVCLLNNFYPREAKVQWKVDNALQSGNSQESVTEQDSKDSTYSLSSTLTLSKADYEKHKVYACEVTHQGLSSPVTKSFNRGEC
notes: IgG1 mAb
The EC50 (read off the curve) is the concentration that produces a half-maximal response. With B1, in experiment [1], the “EC50 (nM), pSTAT3 AlphaLISA, after pre-exposure to 30 nM Antibody A and wash-out” value came out at 0.36 nM; the “EC50 (nM), pSTAT3 AlphaLISA, vehicle-exposed cells” value (shortened to “EC50 (nM) … vehicle-exposed cells”) came to 0.331 nM; the “Top (%), pSTAT3 AlphaLISA against 30 nM leptin, vehicle-exposed cells” value (“Top (%), pSTAT3 AlphaLISA” for short) stood at 68.9%. In experiment [2], the “Maximum RLU, pERK1/2 AlphaLISA (baseline 29762.5)” value (from here on “Maximum RLU, pERK1/2 AlphaLISA”) amounted to 86000 RLU. Further, in experiment [3], the “EC50 (read off the curve)” value was ~0.06 µg/mL. For the same molecule, the binding result in experiment [4] is on record as “no binding (tested: LEPR-ECD tested up to 1000 nM)”. Moreover, in experiment [5], the “Bottom (gMFI)” value amounted to 131 gMFI and the “Top (gMFI)” value stood at 2460 gMFI. In experiment [6], the “Bottom (gMFI)” value amounted to 254 gMFI and the “Top (gMFI)” value amounted to 12100 gMFI.

B2: Antibody C (antibody, human IgG1, kappa, L234A L235A, V domains shown)
VH: EVQLLESGGGLVQPGGSLRLSCAASGFTFSSFAMSWVRQAPGKGLEWVSAISGSGGSTYSADSVRGRFTISRDNSKNTLYLQMNSLRAEDTAVYYCAKDQGDWDFLFDYWGQGTLVTVSS
VL: DIQMTQSPSFLSASVGDRVTITCRASQGISSSLAWYQQKPGKAPKLLIYTASTLQSGVPSRFSGSGSGTEFTLTISSLQPEDFATYYCQQLNYYPFSFGQGTKVEIKR
In the case of B2, in experiment [1], the “EC50 (nM), pSTAT3 AlphaLISA, after pre-exposure to 30 nM Antibody C and wash-out” value is 1.14 nM; the “EC50 (nM) … vehicle-exposed cells” value stood at 1.04 nM; the “Top (%), pSTAT3 AlphaLISA” value came out at 71.7%. Moreover, in experiment [2], the “Maximum RLU, pERK1/2 AlphaLISA” value came out at 87000 RLU. For the same molecule, the “EC50 (read off the curve)” value in experiment [3] was ~0.07 µg/mL. Further, in experiment [4], the binding result is on record as “no binding (tested: LEPR-ECD tested up to 1000 nM)”. Besides, in experiment [5], the “Bottom (gMFI)” value stood at 144 gMFI and the “Top (gMFI)” value turned out to be 1850 gMFI. For the same molecule, in experiment [6], the “Bottom (gMFI)” value came out at 214 gMFI and the “Top (gMFI)” value is 10800 gMFI.

B3: Antibody B (antibody, human IgG1, kappa, L234A L235A, V domains shown)
VH: EVQLLESGGGLVQPGGSLRLSCAASGFTFSSFAMSWVRQAPGKGLEWVSAISGSGGSTYSADSVRGRFTISRDNSKNTLYLQMNSLRAEDTAVYYCAKDQGDWDFLFDYWGQGTLVTVSS
VL: DIQMTQSPSFLSASVGDRVTITCRVSQGISSSLAWYQQKPGKAPKLLIYTASTLQSGVPSRFSGSGSGTEFTLTISSLQPEDFATYYCQQLNYYPFTFGQGTKVEIKR
As for B3, in experiment [1], the “EC50 (nM), pSTAT3 AlphaLISA, after pre-exposure to 30 nM Antibody B and wash-out” value amounted to 1.06 nM; the “EC50 (nM) … vehicle-exposed cells” value is 0.986 nM; the “Top (%), pSTAT3 AlphaLISA” value worked out at 70.5%. Also, the “Maximum RLU, pERK1/2 AlphaLISA” value in experiment [2] was 83400 RLU. The “EC50 (read off the curve)” value in experiment [3] is ~0.08 µg/mL. Moreover, in experiment [4], the binding result is “no binding (tested: LEPR-ECD tested up to 1000 nM)”. For the same molecule, in experiment [5], the “Bottom (gMFI)” value was found to be 123 gMFI and the “Top (gMFI)” value stood at 2940 gMFI. Moreover, in experiment [6], the “Bottom (gMFI)” value is 243 gMFI and the “Top (gMFI)” value stood at 12100 gMFI.

For the origin of these results see patent US20250289897A1 (Eli Lilly, published 2025).
